Measurements published in patent publication US20170340698A1, “CYCLIC PEPTIDE SPECIFICALLY BINDING TO APOPTOTIC CELLS AND USE THEREOF” (KYUNGPOOK NATIONAL UNIVERSITY INDUSTRY-ACADEMIC COOPERATION …, priority 2014, published 2017).

Tested on: SNU16 human stomach cancer cell line
Experiment: In vitro binding of FITC-conjugated peptides to apoptotic cells, flow cytometry
Assay type: cell-based
Details: fluorescent probe
Method: SNU16 human stomach cancer cell line was purchased from KCLB (Seoul, Korea). […] After treatment, cells were incubated with fluorescein isothiocyanate (FITC)-conjugated linear or cyclic form of ApoPep-1 peptide at 4[…] for 1 hour. As control, cells were stained with Alexa488-conjugated annexin V (Life technologies, Carlsbad, Calif.) for 15 min at room temperature. Percentages of fluorescent (the liner or cyclic form of ApoPep-1 peptide-bound or annexin V-bound fluorescence) cells were calculated by measurement and analysis methods through the selection of the fluorescent signals (the liner or cyclic form of ApoPep-1 peptide-bound or annexin V-bound fluorescence), which were shown in the respective cells when cells in an emulsion state pass through a constant fluorescence detection zone, using flow cytometry (Fluorescence-activated cell sorting (FACS), FACS calibur, BD Biosciences, MA, USA).
Cyclic form of ApoPep-1 (cyclo[CQRPPRC] peptide of the present invention) was prepared by adding cysteine residue at the carboxy terminal of linear form of ApoPep-1 (CQRPPR) and performing cyclization through disulfide bonding.

B1: annexin V: existing apoptotic probe used as control, Alexa488-conjugated (Life technologies) (protein, UniProt P08758 2-320, looked up)
Annexin A5: AQVLRGTVTDFPGFDERADAETLRKAMKGLGTDEESILTLLTSRSNAQRQEISAAFKTLFGRDLLDDLKSELTGKFEKLIVALMKPSRLYDAYELKHALKGAGTNEKVLTEIIASRTPEELRAIKQVYEEEYGSSLEDDVVGDTSGYYQRMLVVLLQANRDPDAGIDEAQVEQDAQALFQAGELKWGTDEEKFITIFGTRSVSHLRKVFDKYMTISGFQIEETIDRETSGNLEQLLLAVVKSIRSIPAYLAETLYYAMKGAGTDDHTLIRVMVSRSEIDLFNIRKEFRKNFATSLYSMIKGDTSGDYKKALLLLCGEDD
modifications: Alexa488 conjugate
percentage of apoptotic cells detected (SNU16 cells treated with cetuximab alone (200 ug/ml) for 24 hours): ~40%
percentage of apoptotic cells detected (SNU16 cells treated with cisplatin (300 ng/ml) plus cetuximab in combination for 24 hours): ~45%
percentage of apoptotic cells detected (SNU16 cells treated with cisplatin alone (300 ng/ml) for 24 hours): approximately 43%
